The text below walks through data of patent US20080050387A1 (published 2008).

Test [1] has as its target T1, testicular receptor 4 (TR4) (Homo sapiens (Human), UniProt P49116 1-596, limits assumed).
T1 construct: hSos fusion (pSos-TR4) in yeast; also called pSos-TR4
T1 sequence: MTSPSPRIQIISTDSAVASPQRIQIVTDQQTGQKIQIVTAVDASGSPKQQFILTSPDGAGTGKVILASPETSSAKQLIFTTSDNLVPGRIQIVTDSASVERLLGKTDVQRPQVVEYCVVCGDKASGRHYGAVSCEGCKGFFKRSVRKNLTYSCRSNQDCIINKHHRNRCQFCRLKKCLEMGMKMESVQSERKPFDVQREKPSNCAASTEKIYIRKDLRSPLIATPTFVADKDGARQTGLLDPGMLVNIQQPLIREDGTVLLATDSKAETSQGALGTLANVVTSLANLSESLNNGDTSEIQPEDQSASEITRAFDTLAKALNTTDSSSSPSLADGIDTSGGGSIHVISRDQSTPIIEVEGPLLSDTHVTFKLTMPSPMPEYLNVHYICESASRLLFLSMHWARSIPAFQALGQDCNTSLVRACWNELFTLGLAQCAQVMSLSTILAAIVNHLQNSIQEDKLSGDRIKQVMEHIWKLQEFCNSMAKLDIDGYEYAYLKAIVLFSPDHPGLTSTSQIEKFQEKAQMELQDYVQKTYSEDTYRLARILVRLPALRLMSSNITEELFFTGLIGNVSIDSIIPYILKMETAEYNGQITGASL
Nature of the test: CytoTrap Sos yeast two-hybrid, growth of cdc25H on SD/Gal(-LU) at 37° C.
Experimental: (§1) The bait and library constructs were co-transformed into yeast strain cdc25H. […] Only the clones that grow out on SD/Gal (−LU) plates but not on SD/Glu (−LU) plates at 37° C. are interaction positive ones.

The target of the next test is T2, ARA70 (UniProt Q13772 1-614, limits assumed).
T2 construct: also called pSos-ARA70; pSos-APA70
T2 sequence (looked up): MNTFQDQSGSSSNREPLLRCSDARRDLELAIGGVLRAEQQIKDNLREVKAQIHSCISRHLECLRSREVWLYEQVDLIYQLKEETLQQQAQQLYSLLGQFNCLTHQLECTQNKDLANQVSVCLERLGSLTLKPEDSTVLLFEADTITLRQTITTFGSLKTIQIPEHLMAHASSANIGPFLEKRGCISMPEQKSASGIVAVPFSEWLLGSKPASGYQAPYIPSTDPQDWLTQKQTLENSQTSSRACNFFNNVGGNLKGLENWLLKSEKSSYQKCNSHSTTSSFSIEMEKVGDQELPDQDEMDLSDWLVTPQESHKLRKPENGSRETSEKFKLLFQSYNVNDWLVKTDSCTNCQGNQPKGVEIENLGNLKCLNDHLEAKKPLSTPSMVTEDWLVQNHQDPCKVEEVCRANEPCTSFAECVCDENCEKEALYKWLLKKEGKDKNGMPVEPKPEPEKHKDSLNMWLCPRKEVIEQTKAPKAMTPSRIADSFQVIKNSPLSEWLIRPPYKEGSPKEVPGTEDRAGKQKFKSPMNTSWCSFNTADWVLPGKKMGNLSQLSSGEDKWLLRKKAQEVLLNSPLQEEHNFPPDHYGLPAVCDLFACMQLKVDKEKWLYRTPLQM
Described as above.

Experimental for ARA70: as §1

B1: ARA67 clone of the CytoTrap screen, amino acids 20-585 of PAT1 (pMyr-ARA67) (other)
chain: AVVDNYIRSRRDIRSLPENIQFDVYYKLYQQGRLCQLGSEFCELEVFAKVLRALDKRHLLHHCFQALMDHGVKVASVLAYSFSRRCSYIAESDAAVKEKAIQVGFVLGGFLSDAGWYSDAEKVFLSCLQLCTLHDEMLHWFRAVECCVRLLHVRNGNCKYHLGEETFKLAQTYMDKLSKHGQQANKAALYGELCALLFAKSHYDEAYKWCIEAMKEITAGLPVKVVVDVLRQASKACVVKREFKKAEQLIKHAVYLARDHFGSKHPKYSDTLLDYGFYLLNVDNICQSVAIYQAALDIRQSVFGGKNIHVATAHEDLAYSSYVHQYSSGKFDNALFHAERAIGIITHILPEDHLLLASSKRVKALILEEIAIDCHNKETEQRLLQEAHDLHLSSLQLAKKAFGEFNVQTAKHYGNLGRLYQSMRKFKEAEEMHIKAIQIKEQLLGQEDYEVALSVGHLASLYNYDMNQYENAEKLYLRSIAIGKKLFGEGYSGLEYDYRGLIKLYNSIGNYEKVFEYHNVLSNWNRLRDRQYSVTDALEDVSTSPQSTEEVVQSFLISQNVEGPSC
notes: The clone matched the DNA encoding aa 20-585 of PAT1 at 99.6% identity; also called pMyr-ARA67/PAT1
With B1, the binding result (in test [1]; in the test with ARA70) was “no binding” in each case.
